Target: Lys65 (UniProt position 65, ICSVSKQFTCA)
Experiment: kinetics
Conditions: 25 °C, not stated (0.1 M Tris-HCl buffer), Free enzyme (Vmax/KM profile) with D-Ala-pNA as substrate

“D-aminopeptidase (DAP) (Ochrobactrum anthropi)” was tested, and the pKa was 7.4.
